Test results taken from the supplement of paper PMC5998384.

How the values were obtained:
HeLa Kyoto [1] = test: solubility change mitosis vs G1/S (difference of NP-40 vs SDS log2 ratios) (log2 ratio difference); higher = more soluble in mitosis
HeLa Kyoto [2] = test: thermal stability score vs G1/S (z-score of summed log2 fold changes over temperatures); higher = more thermally stable than in G1/S
HeLa Kyoto [3] = test: solubility in G1/S (NP-40 vs SDS abundance) (log2 ratio); higher = more soluble; conditions: cell cycle stage: G1/S
HeLa Kyoto [4] = test: melting temperature (median over replicates), in situ; higher = more thermally stable
[5] = cell cycle stage: early G1 (4.5 h after nocodazole release)
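Throughout, for melting temperature (median over replicates), in situ: HeLa Kyoto cells synchronized by double thymidine or nocodazole block, proteins quantified by TMT10plex mass spectrometry, three independent biological replicates.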
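Throughout, for solubility change mitosis vs G1/S (difference of NP-40 vs SDS log2 ratios): synchronized HeLa Kyoto cells (double thymidine block for G1/S, nocodazole release for mitosis), protein amounts in NP-40 versus SDS lysates quantified by mass spectrometry, three biological replicates.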
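Throughout, for solubility in G1/S (NP-40 vs SDS abundance): HeLa Kyoto cells arrested at G1/S by double thymidine block, proteins quantified by TMT10plex mass spectrometry in mild NP-40 versus SDS extracts, three biological replicates.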
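Throughout, for thermal stability score vs G1/S (z-score of summed log2 fold changes over temperatures): synchronized HeLa Kyoto cells, proteins quantified by TMT10plex mass spectrometry, three biological replicates, mitosis taken 0.5 h after nocodazole release, G1/S directly after double thymidine block.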

Row | Substance | solubility change mitosis (log2) (HeLa Kyoto [1]) | thermal stability score (HeLa Kyoto [2]; [5]) | thermal stability score (HeLa Kyoto [2]; cell cycle stage: mitosis) | solubility in G1/S (log2) (HeLa Kyoto [3]) | melting temperature (HeLa Kyoto [4]; cell cycle stage: G1/S) [°C] | melting temperature (HeLa Kyoto [4]; cell cycle stage: mitosis) [°C]
1 | MADGSLTGGGLEAAAMAPERMGWAVEQELASLEKGLFQDEDSCSDCSYRDKPGSSLQSFMPEGKTFFPEIFQTNQLLFYERFRAYQDYILADCKASEVQEFTAEFLEKVLEPSGWRAVWHTNVFKVLVEITDVDFAALKAVVRLAEPYLCDSQVSTFTMECMKELLDLKEHRLPLQELWVVFDDSGVFDQTALAIEHVRFFYQNIWRSWDEEEEDEYDYFVRCVEPRLRLHYDILEDRVPSGLIVDYHNLLSQCEESYRKFLNLRSSLSNCNSDSEQENISMVEGLKLYSEMEQLKQKLKLIENPLLRYVFGYQKNSNIQAKGVRSSGQKITHVVSSTMMAGLLRSLLTDRLCQEPGEEEREIQFHSDPLSAINACFEGDTVIVCPGHYVVHGTFSIADSIELEGYGLPDDIVIEKRGKGDTFVDCTGADIKISGIKFVQHDAVEGILIVHRGKTTLENCVLQCETTGVTVRTSAEFLMKNSDLYGAKGAGIEIYPGSQCTLSDNGIHHCKEGILIKDFLDEHYDIPKISMVNNIIHNNEGYGVVLVKPTIFSDLQENAEDGTEENKALKIQTSGEPDVAERVDLEELIECATGKMELCARTDPSEQVEGNCEIVNELIAASTQKGQIKKKRLSELGITQADDNLMSQEMFVGIVGNQFKWNGKGSFGTFLF [SHCBP1] | -0.188 | 0.216 | 1.36 | -0.00275 | 49 | 50.4
2 | MYFPSWLSQLYRGLSRPIRRTTQPIWGSLYRSLLQSSQRRIPEFSSFVVRTNTCGELRSSHLGQEVTLCGWIQYRRQNTFLVLRDFDGLVQVIIPQDESAASVKKILCEAPVESVVQVSGTVISRPAGQENPKMPTGEIEIKVKTAELLNACKKLPFEIKNFVKKTEALRLQYRYLDLRSFQMQYNLRLRSQMVMKMREYLCNLHGFVDIETPTLFKRTPGGAKEFLVPSREPGKFYSLPQSPQQFKQLLMVGGLDRYFQVARCYRDEGSRPDRQPEFTQIDIEMSFVDQTGIQSLIEGLLQYSWPNDKDPVVVPFPTMTFAEVLATYGTDKPDTRFGMKIIDISDVFRNTEIGFLQDALSKPHGTVKAICIPEGAKYLKRKDIESIRNFAADHFNQEILPVFLNANRNWNSPVANFIMESQRLELIRLMETQEEDVVLLTAGEHNKACSLLGKLRLECADLLETRGVVLRDPTLFSFLWVVDFPLFLPKEENPRELESAHHPFTAPHPSDIHLLYTEPKKARSQHYDLVLNGNEIGGGSIRIHNAELQRYILATLLKEDVKMLSHLLQALDYGAPPHGGIALGLDRLICLVTGSPSIRDVIAFPKSFRGHDLMSNTPDSVPPEELKPYHIRVSKPTDSKAERAH [DARS2] | -0.114 | -0.868 | 0.237 | 0.144 | 55.5 | 55.9
3 | KIAA0930 | -0.03 | 0.34 | 0.505 | -0.0317 | 52.6 | 52.3
4 | MPATLLRAVARSHHILSKAHQCRRIGHLMLKPLKEFENTTCSTLTIRQSLDLFLPDKTASGLNKSQILEMNQKKSDTSMLSPLNAARCQDEKAHLPTMKSFGTHRRVTHKPNLLGSKWFIKILKRHFSSVSTETFVPKQDFPQVKRPLKASRTRQPSRTNLPVLSVNEDLMHCTAFATADEYHLGNLSQDLASHGYVEVTSLPRDAANILVMGVENSAKEGDPGTIFFFREGAAVFWNVKDKTMKHVMKVLEKHEIQPYEIALVHWENEELNYIKIEGQSKLHRGEIKLNSELDLDDAILEKFAFSNALCLSVKLAIWEASLDKFIESIQSIPEALKAGKKVKLSHEEVMQKIGELFALRHRINLSSDFLITPDFYWDRENLEGLYDKTCQFLSIGRRVKVMNEKLQHCMELTDLMRNHLNEKRALRLEWMIVILITIEVMFELGRVFF [RMND1] | -0.125 | -1 | -0.87 | -0.145 | 52.1 | 51.2
5 | MTHSLVCPETVSRVSSVLNRNTRQFGKKHLFDQDEETCWNSDQGPSQWVTLEFPQLIRVSQLQIQFQGGFSSRRGCLEGSQGTQALHKIVDFYPEDNNSLQTFPIPAAEVDRLKVTFEDATDFFGRVVIYHLRVLGEKV [NR2C2AP] | -0.238 | 0.143 | -0.215 | 0.195 | 53.3 | 52.8
6 | MPPSGPRGTLLLLPLLLLLLLRAVLAVPLERGAPNKEETPATESPDTGLYYHRYLQEVIDVLETDGHFREKLQAANAEDIKSGKLSRELDFVSHHVRTKLDELKRQEVSRLRMLLKAKMDAEQDPNVQVDHLNLLKQFEHLDPQNQHTFEARDLELLIQTATRDLAQYDAAHHEEFKRYEMLKEHERRRYLESLGEEQRKEAERKLEEQQRRHREHPKVNVPGSQAQLKEVWEELDGLDPNRFNPKTFFILHDINSDGVLDEQELEALFTKELEKVYDPKNEEDDMREMEEERLRMREHVMKNVDTNQDRLVTLEEFLASTQRKEFGDTGEGWETVEMHPAYTEEELRRFEEELAAREAELNAKAQRLSQETEALGRSQGRLEAQKRELQQAVLHMEQRKQQQQQQQGHKAPAAHPEGQLKFHPDTDDVPVPAPAGDQKEVDTSEKKLLERLPEVEVPQHL [NUCB1] | 0.0913 | -3.73 | -4.26 | 0.717 | 54.5 | 54.7
7 | MEAADASRSNGSSPEARDARSPSGPSGSLENGTKADGKDAKTTNGHGGEAAEGKSLGSALKPGEGRSALFAGNEWRRPIIQFVESGDDKNSNYFSMDSMEGKRSPYAGLQLGAAKKPPVTFAEKGELRKSIFSESRKPTVSIMEPGETRRNSYPRADTGLFSRSKSGSEEVLCDSCIGNKQKAVKSCLVCQASFCELHLKPHLEGAAFRDHQLLEPIRDFEARKCPVHGKTMELFCQTDQTCICYLCMFQEHKNHSTVTVEEAKAEKETELSLQKEQLQLKIIEIEDEAEKWQKEKDRIKSFTTNEKAILEQNFRDLVRDLEKQKEEVRAALEQREQDAVDQVKVIMDALDERAKVLHEDKQTREQLHSISDSVLFLQEFGALMSNYSLPPPLPTYHVLLEGEGLGQSLGNFKDDLLNVCMRHVEKMCKADLSRNFIERNHMENGGDHRYVNNYTNSFGGEWSAPDTMKRYSMYLTPKGGVRTSYQPSSPGRFTKETTQKNFNNLYGTKGNYTSRVWEYSSSIQNSDNDLPVVQGSSSFSLKGYPSLMRSQSPKAQPQTWKSGKQTMLSHYRPFYVNKGNGIGSNEAP [TRIM29] | 0.303 | -0.827 | -1.46 | -0.308 | 50.6 | 50.9
8 | MADHSFSDGVPSDSVEAAKNASNTEKLTDQVMQNPRVLAALQERLDNVPHTPSSYIETLPKAVKRRINALKQLQVRCAHIEAKFYEEVHDLERKYAALYQPLFDKRREFITGDVEPTDAESEWHSENEEEEKLAGDMKSKVVVTEKAAATAEEPDPKGIPEFWFTIFRNVDMLSELVQEYDEPILKHLQDIKVKFSDPGQPMSFVLEFHFEPNDYFTNSVLTKTYKMKSEPDKADPFSFEGPEIVDCDGCTIDWKKGKNVTVKTIKKKQKHKGRGTVRTITKQVPNESFFNFFNPLKASGDGESLDEDSEFTLASDFEIGHFFRERIVPRAVLYFTGEAIEDDDNFEEGEEGEEEELEGDEEGEDEDDAEINPKV [NAP1L4] | -0.0294 | 1.4 | 0.831 | 0.455 | 51.4 | 51.7
9 | MENMAEEELLPLEKEEVEVAQVQVPTPARDSAGVPAPAPDSALDSAPTPASAPAPAPALAQAPALSPSLASAPEEAKSKRHISIQRQLADLENLAFVTDGNFDSASSLNSDNLDAGNRQACPLCPKEKFRACNSHKLRRHLQNLHWKVSVEFEGYRMCICHLPCRPVKPNIIGEQITSKMGAHYHCIICSATITRRTDMLGHVRRHMNKGETKSSYIAASTAKPPKEILKEADTDVQVCPNYSIPQKTDSYFNPKMKLNRQLIFCTLAALAEERKPLECLDAFGATGIMGLQWAKHLGNAVKVTINDLNENSVTLIQENCHLNKLKVVVDSKEKEKSDDILEEGEKNLGNIKVTKMDANVLMHLRSFDFIHLDPFGTSVNYLDSAFRNIRNLGIVSVTSTDISSLYAKAQHVARRHYGCNIVRTEYYKELAARIVVAAVARAAARCNKGIEVLFAVALEHFVLVVVRVLRGPTSADETAKKIQYLIHCQWCEERIFQKDGNMVEENPYRQLPCNCHGSMPGKTAIELGPLWSSSLFNTGFLKRMLFESLHHGLDDIQTLIKTLIFESECTPQSQFSIHASSNVNKQEENGVFIKTTDDTTTDNYIAQGKRKSNEMITNLGKKQKTDVSTEHPPFYYNIHRHSIKGMNMPKLKKFLCYLSQAGFRVSRTHFDPMGVRTDAPLMQFKSILLKYSTPTYTGGQSESHVQSASEDTVTERVEMSVNDKAEASGCRRW [TRMT1L] | 0.324 | -0.774 | -3 | -0.537 | 51.8 | 50.9
10 | MAGARAAAAAASAGSSASSGNQPPQELGLGELLEEFSRTQYRAKDGSGTGGSKVERIEKRCLELFGRDYCFSVIPNTNGDICGHYPRHIVFLEYESSEKEKDTFESTVQVSKLQDLIHRSKMARCRGRFVCPVILFKGKHICRSATLAGWGELYGRSGYNYFFSGGADDAWADVEDVTEEDCALRSGDTHLFDKVRGYDIKLLRYLSVKYICDLMVENKKVKFGMNVTSSEKVDKAQRYADFTLLSIPYPGCEFFKEYKDRDYMAEGLIFNWKQDYVDAPLSIPDFLTHSLNIDWSQYQCWDLVQQTQNYLKLLLSLVNSDDDSGLLVHCISGWDRTPLFISLLRLSLWADGLIHTSLKPTEILYLTVAYDWFLFGHMLVDRLSKGEEIFFFCFNFLKHITSEEFSALKTQRRKSLPARDGGFTLEDICMLRRKDRGSTTSLGSDFSLVMESSPGATGSFTYEAVELVPAGAPTQAAWRKSHSSSPQSVLWNRPQPSEDRLPSQQGLAEARSSSSSSSNHSDNFFRMGSSPLEVPKPRSVDHPLPGSSLSTDYGSWQMVTGCGSIQERAVLHTDSSLPFSFPDELPNSCLLAALSDRETRLQEVRSAFLAAYSSTVGLRAVAPSPSGAIGGLLEQFARGVGLRSISSNAL [MTMR14] | -0.0972 | -0.497 | -0.428 | -0.145 | 52.8 | –
11 | MADNEKLDNQRLKNFKNKGRDLETMRRQRNEVVVELRKNKRDEHLLKRRNVPHEDICEDSDIDGDYRVQNTSLEAIVQNASSDNQGIQLSAVQAARKLLSSDRNPPIDDLIKSGILPILVHCLERDDNPSLQFEAAWALTNIASGTSEQTQAVVQSNAVPLFLRLLHSPHQNVCEQAVWALGNIIGDGPQCRDYVISLGVVKPLLSFISPSIPITFLRNVTWVMVNLCRHKDPPPPMETIQEILPALCVLIHHTDVNILVDTVWALSYLTDAGNEQIQMVIDSGIVPHLVPLLSHQEVKVQTAALRAVGNIVTGTDEQTQVVLNCDALSHFPALLTHPKEKINKEAVWFLSNITAGNQQQVQAVIDANLVPMIIHLLDKGDFGTQKEAAWAISNLTISGRKDQVAYLIQQNVIPPFCNLLTVKDAQVVQVVLDGLSNILKMAEDEAETIGNLIEECGGLEKIEQLQNHENEDIYKLAYEIIDQFFSSDDIDEDPSLVPEAIQGGTFGFNSSANVPTEGFQF [KPNA4] | -0.0591 | -0.466 | -0.221 | 0.0932 | 52.3 | 51.9
12 | DNAJB4 | 0.0771 | 1.4 | 0.454 | 0.0979 | 49.3 | 49.5
